The results in this text go back to US20130216513A1 (Biogen, published 2013).

The target in the test is T1, GPIIbIIIa on activated human platelets (human, UniProt P08514 32-1039; P05106 27-788).
T1 construct: whole, on cells; also called active form of GPIIbIIIa
Kind of test: FACS on activated human platelets, FITC-labeled FVII antibody; reference FVIIaFc (FVII-011); FIG. 44C.

B1: FVII-094 (other)
chain 1: ANAFLEELRPGSLERECKEEQCSFEEAREIFKDAERTKLFWISYSDGDQCASSPCQNGGSCKDQLQSYICFCLPAFEGRNCETHKDDQLICVNENGGCEQYCSDHTGTKRSCRCHEGYSLLADGVSCTPTVEYPCGKIPILEKRNASKPQGR
chain 2: IVGGKVCPKGECPWQVLLLVNGAQLCGGTLINTIWVVSAAHCFDKIKNWRNLIAVLGEHDLSEHDGDEQSRRVAQVIIPSTYVPGTTNHDIALLRLHQPVVLTDHVVPLCLPERTFSERTLAFVRFSLVSGWGQLLDRGATALELMVLNVPRLMTQDCLQQSRKVGDSPNITEYMFCAGYSDGSKDSCKGDSGGPHATHYRGTWYLTGIVSWGQGCATVGHFGVYTRVSQYIEWLQKLMRSEPRPGVLLRAPFPDIGGGGSGGGGSGGGGSGGGGSGGGGSGGGGSAQVQLQESGGGLVQPGGSLRLSCAASGFMFSRYAMSWVRQAPGKGPEWVSGISGSGGSTYYADSVKGRFTVSRDNSKNTLYLQMNSLRAEDTAVYYCARGATYTSRSDVPDQTSFDYWGQGTLVTVSSGSASAPKLEEGEFSEARVSELTQDPAVSVALGQTVRITCQGDSLRNFYASWYQQKPGQAPTLVIYGLSKRPSGIPDRFSASSSGNTASLTITGAQAEDEADYYCLLYYGGGQQGVFGGGTKLTVLRQPKAAPSVTLFPPSSAA
notes: SCE5 at the C-terminus of FVIIa; no Fc; also called pSYN-FVII-094
As to B1, the binding result is listed as “binds”.
